# Experimental data reported in patent publication US7897364.
# Experiments:
# [1] = biological target: rat agrin, transmembrane isoform containing the splice variants Y4 and Z8, P25304
# [2] = biological target: agrin-EGFP
# [3] = biological target: agrin (endogenous, in mouse spinal cord and brain), A2ASQ1
# [4] = biological target: T1, agrin-C45
# T1 chain: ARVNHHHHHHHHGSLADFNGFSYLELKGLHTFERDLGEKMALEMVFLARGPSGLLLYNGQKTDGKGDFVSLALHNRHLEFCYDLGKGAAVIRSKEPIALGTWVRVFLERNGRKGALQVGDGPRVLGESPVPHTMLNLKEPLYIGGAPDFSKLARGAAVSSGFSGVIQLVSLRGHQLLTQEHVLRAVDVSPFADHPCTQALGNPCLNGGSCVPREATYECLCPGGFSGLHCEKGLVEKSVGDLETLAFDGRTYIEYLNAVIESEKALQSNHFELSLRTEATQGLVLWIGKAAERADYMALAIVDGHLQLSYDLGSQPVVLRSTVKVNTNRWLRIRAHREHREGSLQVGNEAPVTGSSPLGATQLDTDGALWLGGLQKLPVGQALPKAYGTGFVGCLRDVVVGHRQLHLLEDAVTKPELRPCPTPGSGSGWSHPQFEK
# Sequence of rat agrin, transmembrane isoform containing the splice variants Y4 and Z8, P25304 (P25304 whole entry, looked up, change not shown, canonical isoform): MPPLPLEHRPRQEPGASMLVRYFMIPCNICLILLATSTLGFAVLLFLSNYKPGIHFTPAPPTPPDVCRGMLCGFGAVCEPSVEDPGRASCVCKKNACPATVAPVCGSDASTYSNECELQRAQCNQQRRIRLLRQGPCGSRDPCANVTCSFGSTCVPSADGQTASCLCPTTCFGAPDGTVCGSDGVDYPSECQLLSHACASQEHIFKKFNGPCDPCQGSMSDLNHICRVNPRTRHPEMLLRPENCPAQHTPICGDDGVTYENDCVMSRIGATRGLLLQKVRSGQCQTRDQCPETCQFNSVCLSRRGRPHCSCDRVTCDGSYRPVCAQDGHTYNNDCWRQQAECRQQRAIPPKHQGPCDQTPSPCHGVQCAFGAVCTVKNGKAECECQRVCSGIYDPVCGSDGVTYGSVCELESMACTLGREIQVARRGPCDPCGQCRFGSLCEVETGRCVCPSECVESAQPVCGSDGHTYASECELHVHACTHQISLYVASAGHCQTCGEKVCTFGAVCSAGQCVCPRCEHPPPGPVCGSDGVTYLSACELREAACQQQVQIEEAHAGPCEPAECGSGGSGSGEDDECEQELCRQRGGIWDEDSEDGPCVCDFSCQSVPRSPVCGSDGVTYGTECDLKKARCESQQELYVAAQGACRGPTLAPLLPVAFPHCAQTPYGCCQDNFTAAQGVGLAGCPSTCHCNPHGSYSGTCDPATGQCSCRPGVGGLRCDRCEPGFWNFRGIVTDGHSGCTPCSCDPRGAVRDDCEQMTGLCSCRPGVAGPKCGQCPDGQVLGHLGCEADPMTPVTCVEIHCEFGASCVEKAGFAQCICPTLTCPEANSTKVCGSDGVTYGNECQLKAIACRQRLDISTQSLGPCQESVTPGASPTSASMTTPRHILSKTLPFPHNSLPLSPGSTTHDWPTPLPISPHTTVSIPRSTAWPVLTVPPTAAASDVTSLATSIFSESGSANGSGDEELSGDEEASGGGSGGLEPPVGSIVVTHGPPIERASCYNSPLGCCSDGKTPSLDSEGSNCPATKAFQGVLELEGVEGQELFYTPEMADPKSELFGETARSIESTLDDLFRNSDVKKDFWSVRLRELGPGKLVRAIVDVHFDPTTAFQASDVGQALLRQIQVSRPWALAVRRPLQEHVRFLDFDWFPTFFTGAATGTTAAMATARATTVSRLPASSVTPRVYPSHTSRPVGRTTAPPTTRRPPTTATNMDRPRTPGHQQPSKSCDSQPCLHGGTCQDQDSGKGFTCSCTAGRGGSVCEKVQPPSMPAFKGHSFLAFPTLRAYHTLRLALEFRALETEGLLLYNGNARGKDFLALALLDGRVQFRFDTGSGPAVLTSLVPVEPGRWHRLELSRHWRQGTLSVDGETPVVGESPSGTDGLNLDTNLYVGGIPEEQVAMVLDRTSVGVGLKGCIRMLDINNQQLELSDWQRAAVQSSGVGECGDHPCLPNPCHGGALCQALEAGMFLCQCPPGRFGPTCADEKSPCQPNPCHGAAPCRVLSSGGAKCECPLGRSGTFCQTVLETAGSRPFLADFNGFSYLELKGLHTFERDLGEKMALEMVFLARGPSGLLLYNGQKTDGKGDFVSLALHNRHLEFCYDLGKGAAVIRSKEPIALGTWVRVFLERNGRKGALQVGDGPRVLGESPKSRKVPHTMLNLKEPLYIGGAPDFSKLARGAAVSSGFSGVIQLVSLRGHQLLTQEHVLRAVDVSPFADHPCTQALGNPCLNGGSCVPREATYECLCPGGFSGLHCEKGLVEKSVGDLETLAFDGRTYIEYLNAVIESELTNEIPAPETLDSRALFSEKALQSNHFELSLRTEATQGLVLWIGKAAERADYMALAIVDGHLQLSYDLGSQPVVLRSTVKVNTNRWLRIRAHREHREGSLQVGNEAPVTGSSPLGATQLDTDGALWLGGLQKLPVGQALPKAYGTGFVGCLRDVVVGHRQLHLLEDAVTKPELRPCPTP
# Sequence of agrin (endogenous, in mouse spinal cord and brain), A2ASQ1 (A2ASQ1 whole entry): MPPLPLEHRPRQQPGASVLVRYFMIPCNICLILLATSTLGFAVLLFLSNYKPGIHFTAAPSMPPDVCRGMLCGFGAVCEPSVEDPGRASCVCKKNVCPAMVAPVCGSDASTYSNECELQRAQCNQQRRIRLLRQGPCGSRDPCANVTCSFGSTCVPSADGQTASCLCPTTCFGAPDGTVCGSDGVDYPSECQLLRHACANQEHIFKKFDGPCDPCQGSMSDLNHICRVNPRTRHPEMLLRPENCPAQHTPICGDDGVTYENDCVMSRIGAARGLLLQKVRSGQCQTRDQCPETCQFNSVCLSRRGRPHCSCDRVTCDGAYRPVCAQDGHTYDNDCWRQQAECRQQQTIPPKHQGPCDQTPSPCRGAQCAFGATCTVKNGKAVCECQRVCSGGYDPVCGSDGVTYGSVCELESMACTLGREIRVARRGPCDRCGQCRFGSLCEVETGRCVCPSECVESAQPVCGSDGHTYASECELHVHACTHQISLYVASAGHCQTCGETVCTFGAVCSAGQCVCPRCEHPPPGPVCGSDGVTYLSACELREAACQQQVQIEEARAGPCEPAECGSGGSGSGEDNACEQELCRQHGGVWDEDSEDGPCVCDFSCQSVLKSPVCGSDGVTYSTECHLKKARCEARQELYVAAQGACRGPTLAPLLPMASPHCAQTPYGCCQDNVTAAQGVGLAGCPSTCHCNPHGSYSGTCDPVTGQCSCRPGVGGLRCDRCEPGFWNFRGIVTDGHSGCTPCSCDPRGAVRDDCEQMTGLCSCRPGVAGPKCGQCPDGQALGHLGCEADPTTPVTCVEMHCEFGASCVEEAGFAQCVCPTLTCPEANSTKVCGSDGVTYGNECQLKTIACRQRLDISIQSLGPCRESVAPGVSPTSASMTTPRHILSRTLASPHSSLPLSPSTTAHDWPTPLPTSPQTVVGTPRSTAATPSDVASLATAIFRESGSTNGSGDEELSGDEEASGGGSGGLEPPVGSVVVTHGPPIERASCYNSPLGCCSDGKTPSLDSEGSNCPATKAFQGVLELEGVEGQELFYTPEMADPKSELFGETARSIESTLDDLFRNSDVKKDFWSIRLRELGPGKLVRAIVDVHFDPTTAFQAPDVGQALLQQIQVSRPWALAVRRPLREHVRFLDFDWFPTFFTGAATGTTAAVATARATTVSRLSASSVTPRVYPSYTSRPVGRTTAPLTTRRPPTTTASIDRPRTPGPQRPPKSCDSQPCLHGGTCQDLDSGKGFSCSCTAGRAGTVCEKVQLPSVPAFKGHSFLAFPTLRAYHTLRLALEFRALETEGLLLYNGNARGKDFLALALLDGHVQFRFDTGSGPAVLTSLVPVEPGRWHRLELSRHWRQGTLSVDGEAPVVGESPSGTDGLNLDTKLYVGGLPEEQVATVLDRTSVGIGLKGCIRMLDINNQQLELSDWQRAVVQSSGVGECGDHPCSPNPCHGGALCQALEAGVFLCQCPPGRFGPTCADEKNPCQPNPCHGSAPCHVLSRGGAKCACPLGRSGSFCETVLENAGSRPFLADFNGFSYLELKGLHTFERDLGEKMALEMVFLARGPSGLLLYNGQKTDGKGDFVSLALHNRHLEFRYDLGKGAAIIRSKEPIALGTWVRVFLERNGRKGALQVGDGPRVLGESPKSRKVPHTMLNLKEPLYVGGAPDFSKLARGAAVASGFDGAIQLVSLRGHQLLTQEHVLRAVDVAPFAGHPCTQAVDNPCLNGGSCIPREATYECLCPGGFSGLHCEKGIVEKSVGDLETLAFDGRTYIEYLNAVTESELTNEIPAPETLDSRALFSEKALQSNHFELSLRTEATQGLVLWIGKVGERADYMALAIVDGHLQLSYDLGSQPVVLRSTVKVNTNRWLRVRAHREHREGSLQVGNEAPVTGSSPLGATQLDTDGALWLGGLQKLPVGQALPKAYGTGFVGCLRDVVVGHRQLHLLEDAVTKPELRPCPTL
protein,measurement,setting,value
mouse neurotrypsin (protein) DPVSRSPLHRPHPSPPRSQHAHYLPSSRRPPRTPRFPLPLRIPAAQRPQVLSTGHTPPTIPRRCGAGESWGNATNLGVPCLHWDEVPPFLERSPPASWAELRGQPHNFCRSPDGSGRPWCFYRNAQGKVDWGYCDCGQGPALPVIRLVGGNSGHEGRVELYHAGQWGTICDDQWDNADADVICRQLGLSGIAKAWHQAHFGEGSGPILLDEVRCTGNELSIEQCPKSSWGEHNCGHKEDAGVSCVPLTDGVIRLAGGKSTHEGRLEVYYKGQWGTVCDDGWTEMNTYVACRLLGFKYGKQSSVNHFDGSNRPIWLDDVSCSGKEVSFIQCSRRQWGRHDCSHREDVGLTCYPDSDGHRLSPGFPIRLVDGENKKEGRVEVFVNGQWGTICDDGWTDKHAAVICRQLGYKGPARARTMAYFGEGKGPIHMDNVKCTGNEKALADCVKQDIGRHNCRHSEDAGVICDYLEKKASSSGNKEMLSSGCGLRLLHRRQKRIIGGNNSLRGAWPWQASLRLRSAHGDGRLLCGATLLSSCWVLTAAHCFKRYGNNSRSYAVRVGDYHTLVPEEFEQEIGVQQIVIHRNYRPDRSDYDIALVRLQGPGEQCARLSTHVLPACLPLWRERPQKTASNCHITGWGDTGRAYSRTLQQAAVPLLPKRFCKERYKGLFTGRMLCAGNLQEDNRVDSCQGDSGGPLMCEKPDESWVVYGVTSWGYGCGVKDTPGVYTRVPAFVPWIKSVTSL,release of a 100-kDa agrin fragment into the culture medium (Western blot),[1],In 200 µl culture medium of double transfected HEK293T cells a 100-kDa band was detected with the anti-agrin antibody
same,150 kDa C-terminal fragment of agrin-EGFP (Western blot),[2],Western blot detection of the 150 kDa C-terminal fragment of agrin (Ag-CF) generated by neurotrypsin-mediated cleavage of agrin-EGFP
same,temporal pattern of the C-terminal 100-kDa agrin fragment and of neurotrypsin in mouse spinal cord (Western blot),[3],Western blotting with antibodies versus the C-terminal moiety of agrin revealed a highly similar temporal pattern
catalytically inactive neurotrypsin (Neurotrypsin Ser711Ala) (protein) DPVSRSPLHRPHPSPPRSQHAHYLPSSRRPPRTPRFPLPLRIPAAQRPQVLSTGHTPPTIPRRCGAGESWGNATNLGVPCLHWDEVPPFLERSPPASWAELRGQPHNFCRSPDGSGRPWCFYRNAQGKVDWGYCDCGQGPALPVIRLVGGNSGHEGRVELYHAGQWGTICDDQWDNADADVICRQLGLSGIAKAWHQAHFGEGSGPILLDEVRCTGNELSIEQCPKSSWGEHNCGHKEDAGVSCVPLTDGVIRLAGGKSTHEGRLEVYYKGQWGTVCDDGWTEMNTYVACRLLGFKYGKQSSVNHFDGSNRPIWLDDVSCSGKEVSFIQCSRRQWGRHDCSHREDVGLTCYPDSDGHRLSPGFPIRLVDGENKKEGRVEVFVNGQWGTICDDGWTDKHAAVICRQLGYKGPARARTMAYFGEGKGPIHMDNVKCTGNEKALADCVKQDIGRHNCRHSEDAGVICDYLEKKASSSGNKEMLSSGCGLRLLHRRQKRIIGGNNSLRGAWPWQASLRLRSAHGDGRLLCGATLLSSCWVLTAAHCFKRYGNNSRSYAVRVGDYHTLVPEEFEQEIGVQQIVIHRNYRPDRSDYDIALVRLQGPGEQCARLSTHVLPACLPLWRERPQKTASNCHITGWGDTGRAYSRTLQQAAVPLLPKRFCKERYKGLFTGRMLCAGNLQEDNRVDSCQGDAGGPLMCEKPDESWVVYGVTSWGYGCGVKDTPGVYTRVPAFVPWIKSVTSL,release of a 100-kDa agrin fragment into the culture medium (Western blot),[1],no signal was detected in medium of HEK293T cells transfected with agrin and catalytically inactive neurotrypsin
human neurotrypsin (protein) FDSVLNDSLHHSHRHSPPAGPHYPYYLPTQQRPPRTRPPPPLPRFPRPPRALPAQRPHALQAGHTPRPHPWGCPAGEPWVSVTDFGAPCLRWAEVPPFLERSPPASWAQLRGQRHNFCRSPDGAGRPWCFYGDARGKVDWGYCDCRHGSVRLRGGKNEFEGTVEVYASGVWGTVCSSHWDDSDASVICHQLQLGGKGIAKQTPFSGLGLIPIYWSNVRCRGDEENILLCEKDIWQGGVCPQKMAAAVTCSFSHGPTFPIIRLAGGSSVHEGRVELYHAGQWGTVCDDQWDDADAEVICRQLGLSGIAKAWHQAYFGEGSGPVMLDEVRCTGNELSIEQCPKSSWGEHNCGHKEDAGVSCTPLTDGVIRLAGGKGSHEGRLEVYYRGQWGTVCDDGWTELNTYVVCRQLGFKYGKQASANHFEESTGPIWLDDVSCSGKETRFLQCSRRQWGRHDCSHREDVSIACYPGGEGHRLSLGFPVRLMDGENKKEGRVEVFINGQWGTICDDGWTDKDAAVICRQLGYKGPARARTMAYFGEGKGPIHVDNVKCTGNERSLADCIKQDIGRHNCRHSEDAGVICDYFGKKASGNSNKESLSSVCGLRLLHRRQKRIIGGKNSLRGGWPWQVSLRLKSSHGDGRLLCGATLLSSCWVLTAAHCFKRYGNSTRSYAVRVGDYHTLVPEEFEEEIGVQQIVIHREYRPDRSDYDIALVRLQGPEEQCARFSSHVLPACLPLWRERPQKTASNCYITGWGDTGRAYSRTLQQAAIPLLPKRFCEERYKGRFTGRMLCAGNLHEHKRVDSCQGDSGGPLMCERPGESWVVYGVTSWGYGCGVKDSPGVYTKVSAFVPWIKSVTKL,cleavage of purified agrin-C45 by purified neurotrypsin (silver stained SDS-PAGE),[4],The cleavage products agrin-C45 are found between 20 and 25 kDa
same,"cleavage of purified agrin-EGFP by purified neurotrypsin (SDS-PAGE, Western blot)",[2],Lane 2 shows the agrin-EGFP (indicated by arrow marked Ag-EGPF) and the C-terminal fragment of approximately 150 kDa generated by neurotrypsin activity
